Laboratory results reported in article PMC12135937.

Experiments:
Assay in all cases: SPR; Biacore T100, CM4 chip; DIPs immobilised by amine coupling (700-900 RU), monomeric Dpr analytes in 3-fold dilution series (0.012 to 9, 27 or 81 µM); 25 °C; 10 mM Tris-HCl pH 7.2, 150 mM NaCl, 1 mM EDTA, 1 mg/mL BSA, 0.01% Tween-20; equilibrium responses fit to a 1:1 model
[1] = molecular target: DIP-α (Drosophila melanogaster) (UniProt Q9W4R3)
[2] = molecular target: DIP-β isoform C (Drosophila melanogaster)
Sequence of DIP-β isoform C (Drosophila melanogaster) (main, as listed by the source): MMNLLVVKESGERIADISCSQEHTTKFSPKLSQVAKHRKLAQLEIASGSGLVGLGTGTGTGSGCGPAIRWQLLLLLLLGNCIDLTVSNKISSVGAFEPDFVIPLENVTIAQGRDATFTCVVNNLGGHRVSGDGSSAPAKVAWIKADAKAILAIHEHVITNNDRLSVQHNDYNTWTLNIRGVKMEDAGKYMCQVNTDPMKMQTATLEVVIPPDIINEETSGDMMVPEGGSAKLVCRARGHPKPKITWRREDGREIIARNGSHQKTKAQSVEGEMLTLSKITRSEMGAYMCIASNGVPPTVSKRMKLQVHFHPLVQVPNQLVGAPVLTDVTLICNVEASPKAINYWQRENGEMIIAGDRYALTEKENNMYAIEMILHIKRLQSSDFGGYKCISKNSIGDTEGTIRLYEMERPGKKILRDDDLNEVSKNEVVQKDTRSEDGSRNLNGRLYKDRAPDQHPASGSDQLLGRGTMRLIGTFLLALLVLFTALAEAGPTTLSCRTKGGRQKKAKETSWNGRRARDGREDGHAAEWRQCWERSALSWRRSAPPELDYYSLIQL

[3] = molecular target: DIP-λ (Drosophila melanogaster)
Sequence of DIP-λ (Drosophila melanogaster) (main, as listed by the source): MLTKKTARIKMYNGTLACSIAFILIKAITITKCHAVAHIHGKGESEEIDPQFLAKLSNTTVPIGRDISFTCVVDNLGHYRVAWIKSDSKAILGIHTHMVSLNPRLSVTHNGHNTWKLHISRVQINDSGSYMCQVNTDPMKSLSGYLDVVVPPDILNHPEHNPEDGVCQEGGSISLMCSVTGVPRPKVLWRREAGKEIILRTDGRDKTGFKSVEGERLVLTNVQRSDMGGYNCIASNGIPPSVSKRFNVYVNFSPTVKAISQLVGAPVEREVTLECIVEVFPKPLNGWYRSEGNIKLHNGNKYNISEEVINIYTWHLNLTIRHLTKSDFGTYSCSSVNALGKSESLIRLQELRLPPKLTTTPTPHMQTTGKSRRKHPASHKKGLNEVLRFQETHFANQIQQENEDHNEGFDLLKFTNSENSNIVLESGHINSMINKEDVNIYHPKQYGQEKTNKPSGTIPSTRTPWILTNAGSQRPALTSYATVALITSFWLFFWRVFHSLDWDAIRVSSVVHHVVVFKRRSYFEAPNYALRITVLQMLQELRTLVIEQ

Sequence of DIP-α (Drosophila melanogaster) (Q9W4R3 entry or part of it): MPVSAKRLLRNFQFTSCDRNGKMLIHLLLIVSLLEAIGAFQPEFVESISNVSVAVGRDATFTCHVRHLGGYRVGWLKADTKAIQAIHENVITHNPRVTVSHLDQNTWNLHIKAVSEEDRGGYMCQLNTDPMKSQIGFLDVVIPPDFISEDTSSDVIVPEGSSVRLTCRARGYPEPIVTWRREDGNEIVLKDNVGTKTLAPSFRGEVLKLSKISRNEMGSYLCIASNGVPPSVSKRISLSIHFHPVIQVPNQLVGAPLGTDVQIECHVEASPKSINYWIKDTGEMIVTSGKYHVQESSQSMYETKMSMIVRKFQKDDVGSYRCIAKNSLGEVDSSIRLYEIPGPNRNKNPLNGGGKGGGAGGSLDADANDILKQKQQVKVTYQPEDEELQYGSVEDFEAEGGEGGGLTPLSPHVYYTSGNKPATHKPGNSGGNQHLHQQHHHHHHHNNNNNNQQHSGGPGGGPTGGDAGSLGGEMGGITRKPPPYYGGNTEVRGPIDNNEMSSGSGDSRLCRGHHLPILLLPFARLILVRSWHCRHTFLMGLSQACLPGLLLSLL

Kd [1]: 1.34 µM
Kd [2]: 84 µM
Kd [3]: 5.84 µM
B1: Dpr10 isoform A (domain or fragment)
chain: WNEPYFDLTMPRNITSLVGKSAYLGCRVKHLGNKTVAWIRHRDLHILTVGTYTYTTDQRFQTSYHRDIDEWTLQIKWAQQRDAGVYECQISTQPVRSYSVNLNIVDLIDAETSDIMQQYYNDDAFYIAENRVYQSSNDEFAGMFGPIQTVAVPTATILGGPDLYVDKGSTINLTCIIKFSPEPPTHIFWYHQDKVLSEETSGGRLKFKTIKSEETKSILLIYDADLLHSGKYSCYPSNTEIASIRVHVLQGE
